For the test, the target named is native Dictyostelium discoideum pre-60S ribosomal subunit (Dictyostelium discoideum) (UniProt P34113). Nature of the test: cryo-EM structure.

Among the data in article PMC4871238 are percent of native pre-60S subunits carrying eIF6 values, retold here.

Chain of native Dictyostelium discoideum pre-60S ribosomal subunit (Dictyostelium discoideum) (P34113 whole entry, looked up, tested part not stated): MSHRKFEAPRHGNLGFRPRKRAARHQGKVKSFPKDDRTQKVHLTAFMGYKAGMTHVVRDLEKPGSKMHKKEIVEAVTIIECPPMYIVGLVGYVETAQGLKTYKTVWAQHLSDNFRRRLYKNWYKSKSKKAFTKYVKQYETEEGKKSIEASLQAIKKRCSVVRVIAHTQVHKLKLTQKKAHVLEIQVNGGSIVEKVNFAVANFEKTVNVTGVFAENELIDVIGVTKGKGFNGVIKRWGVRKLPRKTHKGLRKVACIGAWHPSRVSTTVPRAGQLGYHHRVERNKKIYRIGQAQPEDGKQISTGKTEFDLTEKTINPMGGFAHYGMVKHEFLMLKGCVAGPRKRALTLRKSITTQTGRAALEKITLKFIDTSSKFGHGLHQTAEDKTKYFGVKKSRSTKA
Chain of Dictyostelium discoideum eIF6 (eukaryotic initiation factor 6), endogenous (Q551M2 whole entry): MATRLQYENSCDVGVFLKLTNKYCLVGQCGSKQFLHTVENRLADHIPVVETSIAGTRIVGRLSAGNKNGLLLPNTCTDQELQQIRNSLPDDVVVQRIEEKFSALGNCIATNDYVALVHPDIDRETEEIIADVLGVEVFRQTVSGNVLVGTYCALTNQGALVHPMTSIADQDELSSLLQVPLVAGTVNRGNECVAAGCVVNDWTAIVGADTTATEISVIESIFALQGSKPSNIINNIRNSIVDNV

The substance “Dictyostelium discoideum eIF6 (eukaryotic initiation factor 6), endogenous (from UniProt Q551M2 1-244) (natural protein)” returned a percent of native pre-60S subunits carrying eIF6 of 85%.
